The source of these data is publication doi:10.1101/2020.11.06.371773.

Values joined by “and” are separate entries in the source; they are usually repeats but may differ in a detail not shown here. Equal values may be shown once.

For the assay, the target named is Mayaro virus (MAYV) capsid (C) protein, strain IQT4235 (Mayaro virus, strain IQT4235). Briefly: cryo-EM structure.

“Mayaro virus (MAYV) capsid (C) protein, strain IQT4235 (natural protein)”: the stoichiometry N (usually the number of molecules, sites or subunits per partner or assembly) is 6 and 5.
